The results in this text go back to article PMC12475274, “Harnessing indole scaffolds to identify small-molecule IRE1α inhibitors modulating XBP1 mRNA splicing” (Nature Communications, 2025).

The data set deals with the molecule itself. Put plainly: crystal structure; p-IRE1α (15 mg/mL) co-crystallised with 1 mM IA107; hanging drop, 0.05 M bicine pH 9.0, 36% PEG300, 0.12 M NaCl, 20 °C; four copies in the asymmetric unit.

B1: phosphorylated human IRE1α kinase and RNase domain (residues 547–977) (domain or fragment, UniProt O75460 547-977, looked up)
chain: GSSPSLEQDDGDEETSVVIVGKISFCPKDVLGHGAEGTIVYRGMFDNRDVAVKRILPECFSFADREVQLLRESDEHPNVIRYFCTEKDRQFQYIAIELCAATLQEYVEQKDFAHLGLEPITLLQQTTSGLAHLHSLNIVHRDLKPHNILISMPNAHGKIKAMISDFGLCKKLAVGRHSFSRRSGVPGTEGWIAPEMLSEDCKENPTYTVDIFSAGCVFYYVISEGSHPFGKSLQRQANILLGACSLDCLHPEKHEDVIARELIEKMIAMDPQKRPSAKHVLKHPFFWSLEKQLQFFQDVSDRIEKESLDGPIVKQLERGGRAVVKMDWRENITVPLQTDLRKFRTYKGGSVRDLLRAMRNKKHHYRELPAEVRETLGSLPDDFVCYFTSRFPHLLAHTYRAMELCSHERLFQPYYFHEPPEPQPPVTPDAL
modifications: phosphorylated (fully phosphorylated fraction, verified by LC-MS); the phosphorylated residues are not given
notes: Human IRE1α (inositol-requiring enzyme 1 alpha), kinase and RNase domain, residues 547-977; Fully phosphorylated fraction separated from the unphosphorylated protein on the anion exchange column; also called p-IRE1α; phosphorylated IRE1α
With B1, the binding result was “binds”.
